{"source": "paper PMC5669353", "about": "(Biochemistry and Biophysics Reports, 2015)", "key": {"[1]": {"target": "T1, lactoperoxidase (Bos taurus, UniProt P80025)", "settings": "read-out: Km, / µM; 80 uM H2O2, 2 mM SCN-, pH 7.4, 37 C; substrate"}, "[2]": {"test_system": "O=C(O)c1cccc(O)c1", "assay": "purified protein, by the assay type"}, "[3]": {"test_system": "O=C(O)c1ccccc1O", "assay": "purified protein, by the assay type"}, "[4]": {"test_system": "O=C(O)c1cc(O)ccc1O", "assay": "purified protein, by the assay type"}, "[5]": {"test_system": "O=C(O)c1cc(O)cc(O)c1", "assay": "purified protein, by the assay type"}, "[6]": {"test_system": "O=C(O)/C=C/c1cccc(O)c1", "assay": "purified protein, by the assay type"}, "[7]": {"test_system": "O=C(O)c1ccc(O)cc1O", "assay": "purified protein, by the assay type"}, "[8]": {"test_system": "O=C(O)c1ccc(O)c(O)c1O", "assay": "purified protein, by the assay type"}, "[9]": {"test_system": "COc1ccc(C(=O)O)cc1O", "assay": "purified protein, by the assay type"}, "[10]": {"test_system": "O=C1C[C@@H](c2ccc(O)cc2)Oc2cc(O)cc(O)c21", "assay": "purified protein, by the assay type"}, "[11]": {"test_system": "OCCc1ccc(O)cc1", "assay": "purified protein, by the assay type"}, "[12]": {"test_system": "O=C1C[C@@H](c2ccc(O)c(O)c2)Oc2cc(O)cc(O)c21", "assay": "purified protein, by the assay type"}, "[13]": {"test_system": "O=C(O)/C=C/c1ccc(O)cc1", "assay": "purified protein, by the assay type"}, "[14]": {"test_system": "O=C(O)c1cc(O)c(O)c(O)c1", "assay": "purified protein, by the assay type"}, "[15]": {"test_system": "O=C(O)c1cccc(O)c1O", "assay": "purified protein, by the assay type"}, "[16]": {"test_system": "O=C1c2c(O)cc(O)cc2O[C@H](c2ccc(O)c(O)c2)[C@H]1O", "assay": "purified protein, by the assay type"}, "[17]": {"test_system": "O=C(O)c1ccc(O)cc1", "assay": "purified protein, by the assay type"}, "[18]": {"test_system": "COc1cc(C(=O)O)ccc1O", "assay": "purified protein, by the assay type"}, "[19]": {"test_system": "O=C(O)c1c(O)cccc1O", "assay": "purified protein, by the assay type"}, "[20]": {"test_system": "Oc1cc(O)c2c(c1)O[C@H](c1ccc(O)c(O)c1)[C@H](O)C2", "assay": "purified protein", "settings": "heme"}, "[21]": {"test_system": "OCCc1ccc(O)c(O)c1", "assay": "purified protein", "settings": "heme substrate channel of LPO"}, "[22]": {"test_system": "O=C(O)/C=C/c1ccc(O)c(O)c1", "assay": "purified protein", "settings": "heme"}, "[23]": {"test_system": "O=c1c(O)c(-c2ccc(O)c(O)c2)oc2cc(O)cc(O)c12", "assay": "purified protein", "settings": "heme"}, "[24]": {"test_system": "O=C1C[C@@H](c2ccc(O)c(O)c2)Oc2cc(O)cc(O)c21", "assay": "purified protein", "settings": "heme"}, "[25]": {"test_system": "O=c1cc(-c2ccc(O)c(O)c2)oc2cc(O)cc(O)c12", "assay": "purified protein", "settings": "heme"}, "[26]": {"test_system": "O=c1cc(-c2ccc(O)cc2)oc2cc(O)cc(O)c12", "assay": "purified protein", "settings": "heme"}, "[27]": {"test_system": "O=C(O)c1ccc(O)c(O)c1", "assay": "purified protein", "settings": "heme"}, "[28]": {"target": "T1, lactoperoxidase", "assay_type": "biochemical"}}}
{"compound": "COc1ccc(C(=O)O)cc1OC", "note": "[3,4-dimethoxybenzoic acid]", "values": [{"measurement": "Km", "setting": "[1]", "value": "981 ± 69.8", "unit": "µM"}]}
{"compound": "lactoperoxidase (Bos taurus)", "values": [{"measurement": "Km", "setting": "[2]", "value": "144.2 ± 28.9", "unit": "µM"}, {"measurement": "kcat", "setting": "[2]", "value": 36.5, "unit": "s⁻¹"}, {"measurement": "kcat/Km", "setting": "[2]", "value": 250000, "unit": "M⁻¹ s⁻¹"}, {"measurement": "Km", "setting": "[3]", "value": "1638.4 ± 439.3", "unit": "µM"}, {"measurement": "Km", "setting": "[4]", "value": "304.2 ± 0.1", "unit": "µM"}, {"measurement": "kcat", "setting": "[4]", "value": 22.4, "unit": "s⁻¹"}, {"measurement": "kcat/Km", "setting": "[4]", "value": 70000, "unit": "M⁻¹ s⁻¹"}, {"measurement": "Km", "setting": "[5]", "value": "118.0 ± 7.9", "unit": "µM"}, {"measurement": "kcat", "setting": "[5]", "value": 22.7, "unit": "s⁻¹"}, {"measurement": "kcat/Km", "setting": "[5]", "value": 190000, "unit": "M⁻¹ s⁻¹"}, {"measurement": "Km", "setting": "[6]", "value": "37.8 ± 8.9", "unit": "µM"}, {"measurement": "kcat", "setting": "[6]", "value": 24, "unit": "s⁻¹"}, {"measurement": "kcat/Km", "setting": "[6]", "value": 630000, "unit": "M⁻¹ s⁻¹"}, {"measurement": "Km", "setting": "[7]", "value": "119.6 ± 8.3", "unit": "µM"}, {"measurement": "kcat", "setting": "[7]", "value": 7, "unit": "s⁻¹"}, {"measurement": "kcat/Km", "setting": "[7]", "value": 60000, "unit": "M⁻¹ s⁻¹"}, {"measurement": "Km", "setting": "[8]", "value": "84.8 ± 0.0", "unit": "µM"}, {"measurement": "kcat", "setting": "[8]", "value": 24.5, "unit": "s⁻¹"}, {"measurement": "kcat/Km", "setting": "[8]", "value": 290000, "unit": "M⁻¹ s⁻¹"}, {"measurement": "Km", "setting": "[9]", "value": "803.5 ± 147.2", "unit": "µM"}, {"measurement": "kcat", "setting": "[9]", "value": 67.7, "unit": "s⁻¹"}, {"measurement": "kcat/Km", "setting": "[9]", "value": 80000, "unit": "M⁻¹ s⁻¹"}, {"measurement": "Km", "setting": "[10]", "value": "0.2 ± 0.0", "unit": "µM"}, {"measurement": "kcat", "setting": "[10]", "value": 19, "unit": "s⁻¹"}, {"measurement": "kcat/Km", "setting": "[10]", "value": "1.03e+08", "unit": "M⁻¹ s⁻¹"}, {"measurement": "Km", "setting": "[11]", "value": "4.5 ± 0.0", "unit": "µM"}, {"measurement": "kcat", "setting": "[11]", "value": 39, "unit": "s⁻¹"}, {"measurement": "kcat/Km", "setting": "[11]", "value": "8.73e+06", "unit": "M⁻¹ s⁻¹"}, {"measurement": "Km", "setting": "[12]", "value": "0.4 ± 0.0", "unit": "µM"}, {"measurement": "kcat", "setting": "[12]", "value": 52.4, "unit": "s⁻¹"}, {"measurement": "kcat/Km", "setting": "[12]", "value": "1.46e+08", "unit": "M⁻¹ s⁻¹"}, {"measurement": "Km", "setting": "[13]", "value": "35.1 ± 0.1", "unit": "µM"}, {"measurement": "kcat", "setting": "[13]", "value": 11, "unit": "s⁻¹"}, {"measurement": "kcat/Km", "setting": "[13]", "value": 310000, "unit": "M⁻¹ s⁻¹"}, {"measurement": "Km", "setting": "[14]", "value": "176.8 ± 0.0", "unit": "µM"}, {"measurement": "kcat", "setting": "[14]", "value": 30.9, "unit": "s⁻¹"}, {"measurement": "kcat/Km", "setting": "[14]", "value": 180000, "unit": "M⁻¹ s⁻¹"}, {"measurement": "Km", "setting": "[15]", "value": "71.3 ± 1.3", "unit": "µM"}, {"measurement": "kcat", "setting": "[15]", "value": 17.9, "unit": "s⁻¹"}, {"measurement": "kcat/Km", "setting": "[15]", "value": 250000, "unit": "M⁻¹ s⁻¹"}, {"measurement": "Km", "setting": "[16]", "value": "0.8 ± 0.0", "unit": "µM"}, {"measurement": "kcat", "setting": "[16]", "value": 48.2, "unit": "s⁻¹"}, {"measurement": "kcat/Km", "setting": "[16]", "value": "6.3e+07", "unit": "M⁻¹ s⁻¹"}, {"measurement": "Km", "setting": "[17]", "value": "119.6 ± 8.1", "unit": "µM"}, {"measurement": "kcat", "setting": "[17]", "value": 16.7, "unit": "s⁻¹"}, {"measurement": "kcat/Km", "setting": "[17]", "value": 140000, "unit": "M⁻¹ s⁻¹"}, {"measurement": "Km", "setting": "[18]", "value": "948.4 ± 0.2", "unit": "µM"}, {"measurement": "kcat", "setting": "[18]", "value": 78.5, "unit": "s⁻¹"}, {"measurement": "kcat/Km", "setting": "[18]", "value": 80000, "unit": "M⁻¹ s⁻¹"}, {"measurement": "Km", "setting": "[19]", "value": "149.1 ± 51.4", "unit": "µM"}, {"measurement": "kcat", "setting": "[19]", "value": 14.8, "unit": "s⁻¹"}, {"measurement": "kcat/Km", "setting": "[19]", "value": 100000, "unit": "M⁻¹ s⁻¹"}, {"measurement": "Km", "setting": "[20]", "value": "0.6 ± 0.0", "unit": "µM"}, {"measurement": "kcat", "setting": "[20]", "value": 41.4, "unit": "s⁻¹"}, {"measurement": "kcat/Km", "setting": "[20]", "value": "6.84e+07", "unit": "M⁻¹ s⁻¹"}, {"measurement": "Km", "setting": "[21]", "value": "1.6 ± 0.1", "unit": "µM"}, {"measurement": "kcat", "setting": "[21]", "value": 67, "unit": "s⁻¹"}, {"measurement": "kcat/Km", "setting": "[21]", "value": "4.21e+07", "unit": "M⁻¹ s⁻¹"}, {"measurement": "Km", "setting": "[22]", "value": "6.9 ± 0.3", "unit": "µM"}, {"measurement": "kcat", "setting": "[22]", "value": 37.2, "unit": "s⁻¹"}, {"measurement": "kcat/Km", "setting": "[22]", "value": "5.4e+06", "unit": "M⁻¹ s⁻¹"}, {"measurement": "Km", "setting": "[23]", "value": "1.7 ± 0.2", "unit": "µM"}, {"measurement": "kcat", "setting": "[23]", "value": 102, "unit": "s⁻¹"}, {"measurement": "kcat/Km", "setting": "[23]", "value": "6.07e+07", "unit": "M⁻¹ s⁻¹"}, {"measurement": "Km", "setting": "[24]", "value": "0.358 ± 0.005", "unit": "µM"}, {"measurement": "Km", "setting": "[25]", "value": "0.2 ± 0.0", "unit": "µM"}, {"measurement": "kcat", "setting": "[25]", "value": 91.6, "unit": "s⁻¹"}, {"measurement": "kcat/Km", "setting": "[25]", "value": "4.72e+08", "unit": "M⁻¹ s⁻¹"}, {"measurement": "Km", "setting": "[26]", "value": "0.1 ± 0.0", "unit": "µM"}, {"measurement": "kcat", "setting": "[26]", "value": 13.1, "unit": "s⁻¹"}, {"measurement": "kcat/Km", "setting": "[26]", "value": "1.22e+08", "unit": "M⁻¹ s⁻¹"}, {"measurement": "Km", "setting": "[27]", "value": "63.9 ± 51.4", "unit": "µM"}, {"measurement": "kcat", "setting": "[27]", "value": 59.2, "unit": "s⁻¹"}, {"measurement": "kcat/Km", "setting": "[27]", "value": 930000, "unit": "M⁻¹ s⁻¹"}]}
{"compound": "O=C(O)c1c(O)cc(O)cc1O", "note": "[2,4,6-trihydroxybenzoic acid]", "values": [{"measurement": "IC50", "setting": "[28]", "value": "36.7 ± 9.6", "unit": "µM"}]}
{"compound": "O=c1cc(-c2ccccc2)oc2cc(O)cc(O)c12", "note": "[chrysin]", "values": [{"measurement": "IC50", "setting": "[28]", "value": "0.23 ± 0.15", "unit": "µM"}]}
